Test results as given in patent publication US10919953 (dated 2021).
Read-outs that look alike come from different tables or passages of the source.

T1: FcgRIa (human, UniProt P12314)
T1 chain: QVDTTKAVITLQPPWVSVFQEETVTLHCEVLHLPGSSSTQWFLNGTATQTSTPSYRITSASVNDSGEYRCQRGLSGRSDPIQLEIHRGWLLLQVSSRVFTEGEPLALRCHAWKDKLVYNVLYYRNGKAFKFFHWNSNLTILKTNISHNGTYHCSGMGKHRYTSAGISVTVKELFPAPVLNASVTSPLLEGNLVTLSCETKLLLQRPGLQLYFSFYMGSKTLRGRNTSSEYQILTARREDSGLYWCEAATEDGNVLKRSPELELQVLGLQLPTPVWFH

T2: FcgRIIaR (human, UniProt P12318)
T2 chain: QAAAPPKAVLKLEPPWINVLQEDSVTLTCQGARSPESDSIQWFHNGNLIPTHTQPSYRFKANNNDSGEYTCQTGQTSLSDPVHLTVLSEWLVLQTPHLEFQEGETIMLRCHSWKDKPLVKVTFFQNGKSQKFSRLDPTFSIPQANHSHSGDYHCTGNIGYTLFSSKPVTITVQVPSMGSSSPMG

T3: FcgRIIb (human, UniProt P31994)
T3 chain: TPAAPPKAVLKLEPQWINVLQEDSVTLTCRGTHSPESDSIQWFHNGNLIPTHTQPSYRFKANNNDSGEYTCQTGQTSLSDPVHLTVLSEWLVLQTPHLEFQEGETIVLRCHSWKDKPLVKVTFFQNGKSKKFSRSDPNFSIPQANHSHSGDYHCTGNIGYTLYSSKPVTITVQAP


Tests used:
Assay in all cases: SPR
FcgRIa [1] = target: T1, FcgRIa
FcgRIIaR [2] = target: T2, FcgRIIaR
FcgRIIb [3] = target: T3, FcgRIIb
FcgRIa [4] = target: T1, FcgRIa
FcgRIIaR [5] = target: T2, FcgRIIaR
FcgRIIb [6] = target: T3, FcgRIIb

Kd (FcgRIa [1]) [nM]	Kd (FcgRIIaR [2]) [nM]	Kd (FcgRIIb [3]) [nM]	Kd (FcgRIa [4]) [nM]	Kd (FcgRIIaR [5]) [nM]	Kd (FcgRIIb [6]) [nM]	Binder
0.31	1300	430	–	–	–	IL6R-BP257/IL6R-L (antibody) chain 1: QVQLQESGPGLVKPSETLSLTCAVSGHSISHDHAWSWVRQPPGEGLEWIGFISYSGITNYNPSLQGRVTISRDNSKNTLYLQMNSLRAEDTAVYYCARSLARTTAMDYWGEGTLVTVSSASTKGPEVFPLAPSSKSTSGGTAALGCLVKDYFPEPVTVSWNSGALTSGVHTFPAVLQSSGLYSLSSVVTVPSSSLGTQTYICNVNHKPSNTKVDKKVEPKSCDKTHTCPPCPAPDLLGDDSVFLFPPKPKDTLMISRTPEVTCVVVDVSDEDGEVKFNWYVDGVEVHNAKTKPREEQYNSTYRVVSVLTVLHQDWLNGKEYKCKVSNKALPRPIEKTISKAKGQPREPQVYTLPPSRDELTKNQVSLTCLVKGFYPSDIAVEWESNGQPENNYKTTPPVLDSDGSFFLYSKLTVDKSRWQQGNVFSCSVMHEALHNHYTQESLSLSP chain 2: not shown
0.31	–	380	–	–	–	IL6R-BP260/IL6R-L (antibody) chain 1: QVQLQESGPGLVKPSETLSLTCAVSGHSISHDHAWSWVRQPPGEGLEWIGFISYSGITNYNPSLQGRVTISRDNSKNTLYLQMNSLRAEDTAVYYCARSLARTTAMDYWGEGTLVTVSSASTKGPEVFPLAPSSKSTSGGTAALGCLVKDYFPEPVTVSWNSGALTSGVHTFPAVLQSSGLYSLSSVVTVPSSSLGTQTYICNVNHKPSNTKVDKKVEPKSCDKTHTCPPCPAPDLLGDDSVFLFPPKPKDTLMISRTPEVTCVVVDVSDEDGEVKFNWYVDGVEVHNAKTKPREEQDNSTYRVVSVLTVLHQDWLNGKEYKCKVSNKALPRPIEKTISKAKGQPREPQVYTLPPSRDELTKNQVSLTCLVKGFYPSDIAVEWESNGQPENNYKTTPPVLDSDGSFFLYSKLTVDKSRWQQGNVFSCSVMHEALHNHYTQESLSLSP chain 2: not shown
3.1	860	110	–	–	–	IL6R-BP259/IL6R-L (antibody) chain 1: QVQLQESGPGLVKPSETLSLTCAVSGHSISHDHAWSWVRQPPGEGLEWIGFISYSGITNYNPSLQGRVTISRDNSKNTLYLQMNSLRAEDTAVYYCARSLARTTAMDYWGEGTLVTVSSASTKGPDVFPLAPSSKSTSGGTAALGCLVKDYFPEPVTVSWNSGALTSGVHTFPAVLQSSGLYSLSSVVTVPSSSLGTQTYICNVNHKPSNTKVDKKVEPKSCDKTHTCPPCPAPDLLGDDSVFLFPPKPKDTLMISRTPEVTCVVVDVSDEDGEVKFNWYVDGVEVHNAKTKPREEQDNSTYRVVSVLTVLHQDWLNGKEYKCKVSNKALPRPIEKTISKAKGQPREPQVYTLPPSRDELTKNQVSLTCLVKGFYPSDIAVEWESNGQPENNYKTTPPVLDSDGSFFLYSKLTVDKSRWQQGNVFSCSVMHEALHNHYTQESLSLSP chain 2: not shown
–	–	–	40	830	26	IL6R-BP419/IL6R-L (antibody) chain 1: QVQLQESGPGLVKPSETLSLTCAVSGHSISHDHAWSWVRQPPGEGLEWIGFISYSGITNYNPSLQGRVTISRDNSKNTLYLQMNSLRAEDTAVYYCARSLARTTAMDYWGEGTLVTVSSASTKGPSVFPLAPSSKSTSGGTAALGCLVKDYFPEPVTVSWNSGALTSGVHTFPAVLQSSGLYSLSSVVTVPSSSLGTQTYICNVNHKPSNTKVDKKVEPKSCDKTHTCPPCPAPDLFGDDSVFLFPPKPKDTLMISRTPEVTCVVVDVSEEDGEVKFNWYVDGVEVHNAKTKPREEQDNSTYRVVSVLTVLHQDWLNGKEYKCKVSNKALPRPIEKTISKAKGQPREPQVYTLPPSRDELTKNQVSLTCLVKGFYPSDIAVEWESNGQPENNYKTTPPVLDSDGSFFLYSKLTVDKSRWQQGNVFSCSVMHEALHNHYTQESLSLSP chain 2: not shown
2	730	87	–	–	–	IL6R-BP256/IL6R-L (antibody) chain 1: QVQLQESGPGLVKPSETLSLTCAVSGHSISHDHAWSWVRQPPGEGLEWIGFISYSGITNYNPSLQGRVTISRDNSKNTLYLQMNSLRAEDTAVYYCARSLARTTAMDYWGEGTLVTVSSASTKGPDVFPLAPSSKSTSGGTAALGCLVKDYFPEPVTVSWNSGALTSGVHTFPAVLQSSGLYSLSSVVTVPSSSLGTQTYICNVNHKPSNTKVDKKVEPKSCDKTHTCPPCPAPDLLGDDSVFLFPPKPKDTLMISRTPEVTCVVVDVSDEDGEVKFNWYVDGVEVHNAKTKPREEQYNSTYRVVSVLTVLHQDWLNGKEYKCKVSNKALPRPIEKTISKAKGQPREPQVYTLPPSRDELTKNQVSLTCLVKGFYPSDIAVEWESNGQPENNYKTTPPVLDSDGSFFLYSKLTVDKSRWQQGNVFSCSVMHEALHNHYTQESLSLSP chain 2: not shown
–	–	–	20	860	26	IL6R-AP029/IL6R-BP408/IL6R-L (antibody) chain 1: QVQLQESGPGLVKPSETLSLTCAVSGHSISHDHAWSWVRQPPGEGLEWIGFISYSGITNYNPSLQGRVTISRDNSKNTLYLQMNSLRAEDTAVYYCARSLARTTAMDYWGEGTLVTVSSASTKGPSVFPLAPSSKSTSGGTAALGCLVKDYFPEPVTVSWNSGALTSGVHTFPAVLQSSGLYSLSSVVTVPSSSLGTQTYICNVNHKPSNTKVDKKVEPKSCDKTHTCPPCPAPDLLGDDSVFLFPPKPKDTLMISRTPEVTCVVVDVSEEDGEVKFNWYVDGVEVHNAKTKPREEQDNSTYRVVSVLTVLHQDWLNGKEYKCKVSNKALPRPIEKTISKAKGQPREPQVYTLPPSRKELTKNQVSLTCLVKGFYPSDIAVEWESNGQPENNYKTTPPVLDSDGSFFLYSKLTVDKSRWQQGNVFSCSVMHEALHNRYTQKSLSLSP chain 2: QVQLQESGPGLVKPSETLSLTCAVSGHSISHDHAWSWVRQPPGEGLEWIGFISYSGITNYNPSLQGRVTISRDNSKNTLYLQMNSLRAEDTAVYYCARSLARTTAMDYWGEGTLVTVSSASTKGPSVFPLAPSSKSTSGGTAALGCLVKDYFPEPVTVSWNSGALTSGVHTFPAVLQSSGLYSLSSVVTVPSSSLGTQTYICNVNHKPSNTKVDKKVEPKSCDKTHTCPPCPAPDLQGDDSVFLFPPKPKDTLMISRTPEVTCVVVDVSEEDGEVKFNWYVDGVEVHNAKTKPREEQDNSTYRVVSVLTVLHQDWLNGKEYKCKVSNKALPRPIEKTISKAKGQPREPQVYTLPPSRDELTKNQVSLTCLVKGFYPSDIAVEWESNGQPENNYKTTPPVLDSDGSFFLYSKLTVDKSRWQQGNVFSCSVMHEALHNHYTQESLSLSP chain 3: not shown
–	850	–	–	–	–	IL6R-BP208/IL6R-L (antibody) chain 1: QVQLQESGPGLVKPSETLSLTCAVSGHSISHDHAWSWVRQPPGEGLEWIGFISYSGITNYNPSLQGRVTISRDNSKNTLYLQMNSLRAEDTAVYYCARSLARTTAMDYWGEGTLVTVSSASTKGPSVFPLAPSSKSTSGGTAALGCLVKDYFPEPVTVSWNSGALTSGVHTFPAVLQSSGLYSLSSVVTVPSSSLGTQTYICNVNHKPSNTKVDKKVEPKSCDKTHTCPPCPAPDLLGDDSVFLFPPKPKDTLMISRTPEVTCVVVDVSDEDGEVKFNWYVDGVEVHNAKTKPREEQYNSTYRVVSVLTVLHQDWLNGKEYKCKVSNKALPRPIEKTISKAKGQPREPQVYTLPPSRDELTKNQVSLTCLVKGFYPSDIAVEWESNGQPENNYKTTPPVLDSDGSFFLYSKLTVDKSRWQQGNVFSCSVMHEALHNHYTQESLSLSP chain 2: not shown
–	–	–	7.4	–	–	IL6R-BP264/IL6R-L (antibody) chain 1: QVQLQESGPGLVKPSETLSLTCAVSGHSISHDHAWSWVRQPPGEGLEWIGFISYSGITNYNPSLQGRVTISRDNSKNTLYLQMNSLRAEDTAVYYCARSLARTTAMDYWGEGTLVTVSSASTKGPSVFPLAPSSKSTSGGTAALGCLVKDYFPEPVTVSWNSGALTSGVHTFPAVLQSSGLYSLSSVVTVPSSSLGTQTYICNVNHKPSNTKVDKKVEPKSCDKTHTCPPCPAPDLLGDDSVFLFPPKPKDTLMISRTPEVTCVVVDVSEEDGEVKFNWYVDGVEVHNAKTKPREEQDNSTYRVVSVLTVLHQDWLNGKEYKCKVSNKALPRPIEKTISKAKGQPREPQVYTLPPSRDELTKNQVSLTCLVKGFYPSDIAVEWESNGQPENNYKTTPPVLDSDGSFFLYSKLTVDKSRWQQGNVFSCSVMHEALHNHYTQESLSLSP chain 2: not shown
